Assay results as given in PMC11171812.

Target: recombinant Plasmodium knowlesi lactate dehydrogenase (Plasmodium knowlesi)
Test: native gel or EMSA; PAGE under native (non-reducing) conditions, 2 ug purified PkLDH in native sample buffer without SDS, 10% polyacrylamide gel without SDS, Coomassie Brilliant Blue R-250; single band between 135 and 180 kDa (monomer ~35.0 kDa on SDS-PAGE)

- stoichiometry N: 4
Substance: recombinant Plasmodium knowlesi lactate dehydrogenase (enzyme)
